The target in this experiment is T1, GLP-1 receptor (GLP-1R) on the surface of mouse beta pancreatic tumor cells β-TC-6 (mouse, UniProt O35659 22-463).
T1 construct: whole, on cells; Endogenous receptor of the mouse cell line
T1 sequence (looked up): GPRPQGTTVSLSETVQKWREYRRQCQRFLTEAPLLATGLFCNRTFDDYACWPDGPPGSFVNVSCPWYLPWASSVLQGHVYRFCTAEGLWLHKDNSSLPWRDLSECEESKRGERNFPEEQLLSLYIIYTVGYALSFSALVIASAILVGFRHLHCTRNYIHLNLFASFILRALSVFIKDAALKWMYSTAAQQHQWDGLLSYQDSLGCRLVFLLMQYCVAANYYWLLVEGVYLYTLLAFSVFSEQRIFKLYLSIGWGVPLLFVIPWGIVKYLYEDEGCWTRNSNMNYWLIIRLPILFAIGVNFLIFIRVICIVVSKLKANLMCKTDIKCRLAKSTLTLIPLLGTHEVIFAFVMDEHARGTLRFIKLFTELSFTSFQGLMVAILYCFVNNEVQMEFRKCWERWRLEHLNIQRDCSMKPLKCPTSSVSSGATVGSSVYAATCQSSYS
The experiment in a line: cell ELISA on fixed β-TC-6 cells, anti-human IgG-HRP detection. In general terms: ELISA stands for enzyme-linked immunosorbent assay.

B1: GLP-1-Fc-3 fusion protein (Fc fusion)
chain: HGEGTFTSDVSSYLEEQAAKEFIAWLVKGGGGGGGSGGGGSGGGGSVECPPCPAPPVAGPSVFLFPPKPKDTLMISRTPEVTCVVVDVSHEDPEVQFNWYVDGVEVHNAKTKPREEQFNSTFRVVSVLTVVHQDWLNGKEYKCKVSNKGLPAPIEKTISKTKGQPREPQVYTLPPSREEMTKNQVSLTCLVKGFYPSDIAVEWESNGQPENNYKTTPPMLDSDGSFFLYSKLTVDKSRWQQGNVFSCSVMHEALHNHYTQKSLSLSPG
notes: also called GLP-1-Fc (IgG2)
Turning to B1, the binding result was “binds”.

B2: GLP-1-Fc-1 fusion protein (Fc fusion)
chain: HGEGTFTSDVSSYLEEQAAKEFIAWLVKGGGGGGGSGGGGSGGGGSVECPPCPAPPVAGPSVFLFPPKPKDTLMISRTPEVTCVVVDVSHEDPEVQFNWYVDGVEVHNAKTKPREEQFNSTFRVVSVLTVVHQDWLNGKEYKCAVSNKGLPAPIEKTISKTKGQPREPQVYTLPPSREEMTKNQVSLTCLVKGFYPSDIAVEWESNGQPENNYKTTPPMLDSDGSFFLYSKLTVDKSRWQQGNVFSCSVMHEALHNHYTQKSLSLSPGK
notes: also called GLP-1-Fc (IgG2)
For the molecule B2, the binding result is given as “binds”.

B3: GLP-1-Fc-2 fusion protein (Fc fusion)
chain: HGEGTFTSDVSSYLEEQAAKEFIAWLVKGGGGGGGSGGGGSGGGGSERKCCVECPPCPAPPVAGPSVFLFPPKPKDTLMISRTPEVTCVVVDVSHEDPEVQFNWYVDGVEVHNAKTKPREEQFNSTFRVVSVLTVVHQDWLNGKEYKCKVSNKGLPAPIEKTISKTKGQPREPQVYTLPPSREEMTKNQVSLTCLVKGFYPSDIAVEWESNGQPENNYKTTPPMLDSDGSFFLYSKLTVDKSRWQQGNVFSCSVMHEALHNHYTQKSLSLSPG
notes: also called GLP-1-Fc (IgG2)
B3: the binding result was “binds”.

The values above are taken from US20160222079A1 (GENOR BIOPHARMA, published 2016).
